Reference: patent US20170334958A1

Target: tumor necrosis factor-α (TNF-α) (human) (UniProt P01375)
Assay: 35S free protein + biotin-TNF-α in solution, biotin capture membrane, phosphorimaging

tumor necrosis factor-α (TNF-α) (human), sequence (P01375 77-233 limits assumed): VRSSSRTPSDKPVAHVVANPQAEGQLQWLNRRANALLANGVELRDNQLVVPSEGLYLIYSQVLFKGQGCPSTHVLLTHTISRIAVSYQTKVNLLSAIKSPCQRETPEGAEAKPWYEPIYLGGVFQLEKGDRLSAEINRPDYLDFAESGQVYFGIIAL

B1: T14.06 (designed binder)
chain: VSDVPRDLEVVAATPTSLLISWTRTNASTRYYRITYGETGGNSPVQEFTVPNFWWTATISGLKPGVDYTITVYAVTSPDETSAYSEPISINYRT
Q: B1 was tested. Which Kd did it give?
A: 1.4 nM
